Source: FireProtDB (doi:10.1021/bi952198j)
Where “and” joins values, the source holds several entries; their conditions need not be identical. Identical values can stand only once.

Conditions: Aspergillus oryzae (strain ATCC 42149 / RIB 40), Thermal, DSC, reversible: yes, whole UniProt chain shown

B1: Guanyl-specific ribonuclease T1 wild type, P00651 (protein)
chain: MMYSKLLTLTTLLLPTALALPSLVERACDYTCGSNCYSSSDVSTAQAAGYQLHEDGETVGSNSYPHKYNNYEGFDFSVSSPYYEWPILSSGDVYSGGSPGADRVVFNENNQLAGVITHTGASGNNFVECT
Tm (pH 2, glycine 50 mM): 34.9 °C | heat capacity change of unfolding (pH 2, glycine 50 mM): 1.33 kcal/mol/K | unfolding enthalpy (calorimetric) (pH 2, glycine 50 mM): 62.1 kcal/mol | unfolding enthalpy (van 't Hoff) (pH 2, glycine 50 mM): 78.9 kcal/mol | Tm (pH 2.4, glycine 50 mM): 41.4 °C | heat capacity change of unfolding (pH 2.4, glycine 50 mM): 0.53 kcal/mol/K | unfolding enthalpy (calorimetric) (pH 2.4, glycine 50 mM): 67.5 kcal/mol | unfolding enthalpy (van 't Hoff) (pH 2.4, glycine 50 mM): 87.3 kcal/mol | Tm (pH 2.5, glycine 50 mM): 45.8 °C | heat capacity change of unfolding (pH 2.5, glycine 50 mM): 0.7 kcal/mol/K | unfolding enthalpy (calorimetric) (pH 2.5, glycine 50 mM): 82.5 kcal/mol | unfolding enthalpy (van 't Hoff) (pH 2.5, glycine 50 mM): 90.4 kcal/mol | Tm (pH 2.75, glycine 50 mM): 48.5 °C | heat capacity change of unfolding (pH 2.75, glycine 50 mM): 0.04 kcal/mol/K | unfolding enthalpy (calorimetric) (pH 2.75, glycine 50 mM): 83.8 kcal/mol | unfolding enthalpy (van 't Hoff) (pH 2.75, glycine 50 mM): 95.4 kcal/mol | Tm (pH 2.8, Citric acid 50 mM): 48 °C | heat capacity change of unfolding (pH 2.8, Citric acid 50 mM): 0.94 kcal/mol/K | unfolding enthalpy (calorimetric) (pH 2.8, Citric acid 50 mM): 76.3 kcal/mol | unfolding enthalpy (van 't Hoff) (pH 2.8, Citric acid 50 mM): 93.4 kcal/mol | Tm (pH 3, Citric acid 50 mM): 50.5 °C | heat capacity change of unfolding (pH 3, Citric acid 50 mM): 0.96 kcal/mol/K | unfolding enthalpy (calorimetric) (pH 3, Citric acid 50 mM): 86.9 kcal/mol | unfolding enthalpy (van 't Hoff) (pH 3, Citric acid 50 mM): 101 kcal/mol | Tm (pH 3.5, Citric acid 50 mM): 56.5 °C | heat capacity change of unfolding (pH 3.5, Citric acid 50 mM): 1.08 kcal/mol/K | unfolding enthalpy (calorimetric) (pH 3.5, Citric acid 50 mM): 94.8 kcal/mol | unfolding enthalpy (van 't Hoff) (pH 3.5, Citric acid 50 mM): 104 kcal/mol | Tm (pH 3.7, Citric acid 50 mM): 58.3 °C | heat capacity change of unfolding (pH 3.7, Citric acid 50 mM): 1.65 kcal/mol/K | unfolding enthalpy (calorimetric) (pH 3.7, Citric acid 50 mM): 98.1 kcal/mol | unfolding enthalpy (van 't Hoff) (pH 3.7, Citric acid 50 mM): 105 kcal/mol | Tm (pH 4.5, Citric acid 50 mM): 58.7 °C | heat capacity change of unfolding (pH 4.5, Citric acid 50 mM): 1.58 kcal/mol/K | unfolding enthalpy (calorimetric) (pH 4.5, Citric acid 50 mM): 96.6 kcal/mol | unfolding enthalpy (van 't Hoff) (pH 4.5, Citric acid 50 mM): 101 kcal/mol | Tm (pH 5, Citric acid 50 mM): 60.1 °C | heat capacity change of unfolding (pH 5, Citric acid 50 mM): 0.91 kcal/mol/K | unfolding enthalpy (calorimetric) (pH 5, Citric acid 50 mM): 101 kcal/mol | unfolding enthalpy (van 't Hoff) (pH 5, Citric acid 50 mM): 105 kcal/mol | Tm (pH 5.5, Citric acid 50 mM): 65.3 °C | heat capacity change of unfolding (pH 5.5, Citric acid 50 mM): 1.26 kcal/mol/K | unfolding enthalpy (calorimetric) (pH 5.5, Citric acid 50 mM): 109 kcal/mol | unfolding enthalpy (van 't Hoff) (pH 5.5, Citric acid 50 mM): 123 kcal/mol | Tm (pH 6, Citric acid 50 mM): 64.7 °C | heat capacity change of unfolding (pH 6, Citric acid 50 mM): 1.92 kcal/mol/K and 1.88 kcal/mol/K | unfolding enthalpy (calorimetric) (pH 6, Citric acid 50 mM): 114 kcal/mol | unfolding enthalpy (van 't Hoff) (pH 6, Citric acid 50 mM): 122 kcal/mol | Tm (pH 6.5, Citric acid 50 mM): 64.2 °C | heat capacity change of unfolding (pH 6.5, Citric acid 50 mM): 1.33 kcal/mol/K | unfolding enthalpy (calorimetric) (pH 6.5, Citric acid 50 mM): 115 kcal/mol | unfolding enthalpy (van 't Hoff) (pH 6.5, Citric acid 50 mM): 124 kcal/mol
